“Also recorded” adds a separate entry of the source.
Tested on: HLA-B*0702 transgenic mice
Experiment: Vaccination of HLA-B*0702 transgenic mice (peptide + IC31), IFN-gamma ELISpot with spleen cells and CD8+ fraction
Type: in vivo, mouse
Details: for specific INF-γ producing T cells / HLA-B*0702 epitope in HLA-B*0702 transgenic mice (in words): peptide + IC31, whole spleen cells and CD8+ fraction
Protocol: Mouse splenocyte ELIspot assay for single cell IFN-gamma release ELISpot plates (MAHA S4510, Millipore, Germany) were rinsed with PBS (200 μl/well), coated with anti-mouse IFN-gamma mAb (clone R46A2; 100 μl/well of 5 μg/ml in 0.1 M NaHCO3, pH 9.2-9.5) and incubated overnight at 4° C. Plates were washed four times with PBS/0.1% Tween 20 and incubated with PBS/1% BSA (200 μl/well) at room temperature for 2 h to block nonspecific binding. Spleen cells from vaccinated mice were prepared and plated at 1×10^6-3×10^5 cells/well and incubated overnight at 37° C./5% CO2 either in the presence of the immunizing antigen (peptide), control peptides or with medium alone. Subsequently, plates were washed four times and incubated with biotinylated anti-mouse IFN-gamma mAb (clone AN18.17.24, 100 μl/well of 2 μg/ml in PBS/1% BSA) for 2 h at 37° C. After washing, streptavidin-peroxidase (Roche Diagnostics, Vienna, Austria) was added ( 1/5000 in PBS, 100 μl/well) and plates were incubated at room temperature for 2 additional hours. Subsequently, substrate was added to the washed plates (100 μl/well of a mixture of 10 ml 100 mM Tris pH 7.5 supplemented with 200 μl of 40 mg/ml DAB stock containing 50 μl of 80 mg/ml NiCl2 stock and 5 μl of 30% H2O2). The reaction was stopped after 20-30 minutes by washing the plates with tap water. Dried plates were evaluated with an ELISpot reader (BIOREADER 2000, BioSys, Karben, Germany).
Groups of 5 mice (HLA-A*0201-, HLA-DRB1*0401- and HLA-B*0702 transgenic mice, male, 8-14 weeks of age) were injected subcutaneous into the hind footpads with 100 μg of peptide +IC31 per mouse (50 μg per footpad). (PCT/EP01/12041, WO 02/32451 A1 and PCT/EP01/06433, WO 01/93905 A1; IC31 is a combination of the immunizer disclosed in WO 01/93905 and WO 02/32451). […]

B1: MSTNPKPQRKTKRNTNRRPQDVKFPGGGQIVGGVYLLPRRGPRLGVRATRKTSERSQPRGRRQPIPK (peptide)
peptide: MSTNPKPQRKTKRNTNRRPQDVKFPGGGQIVGGVYLLPRRGPRLGVRATRKTSERSQPRGRRQPIPK
Immunogenicity, peptide-specific IFN-gamma-producing cells, B*0702 (HLA-B*0702 transgenic mice, splenocytes): + (immunogenic (+, less than 100 peptide-specific cells among a million splenocytes)) | specific INF-γ producing T cells / HLA-B*0702 epitope in HLA-B*0702 transgenic mice (in words): confirmed to contain human HLA-B*0702 epitopes; also recorded: HLA-B*0702 epitopes with T-cell activating capacity | specific INF-γ producing T cells / HLA-B*0702 epitope in HLA-B*0702 transgenic mice (in words) (listed as Ipep1506): significant interferon-gamma induction

— US7378234B2, “Method for isolating hepatitis C virus peptides” (Intercell AG, priority 2002, dated 2008)
